According to PMC7641744:
Read-outs that look alike come from different tables or passages of the source. Values belong to the molecule of their own block, whether it stands above or below them.

Columns and labels:
[1] = tested on: T1, RappLS20-His(6) (Bacillus subtilis plasmid pLS20 (pLS20cat)), ORF:c1c32938; assay: EMSA
T1 sequence: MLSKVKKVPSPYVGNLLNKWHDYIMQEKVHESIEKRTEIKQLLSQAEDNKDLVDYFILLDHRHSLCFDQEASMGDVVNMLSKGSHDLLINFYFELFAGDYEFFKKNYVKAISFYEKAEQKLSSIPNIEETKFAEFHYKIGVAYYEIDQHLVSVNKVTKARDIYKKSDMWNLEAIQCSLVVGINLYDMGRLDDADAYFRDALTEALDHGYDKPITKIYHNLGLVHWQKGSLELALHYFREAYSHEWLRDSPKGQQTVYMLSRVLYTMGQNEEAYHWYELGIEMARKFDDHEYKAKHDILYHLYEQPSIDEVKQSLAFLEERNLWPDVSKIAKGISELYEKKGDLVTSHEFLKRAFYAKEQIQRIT

[2] = tested on: T2, RcopLS20-His(6) (Bacillus subtilis plasmid pLS20 (pLS20cat)), ORF:72252162; assay: EMSA
T2 sequence: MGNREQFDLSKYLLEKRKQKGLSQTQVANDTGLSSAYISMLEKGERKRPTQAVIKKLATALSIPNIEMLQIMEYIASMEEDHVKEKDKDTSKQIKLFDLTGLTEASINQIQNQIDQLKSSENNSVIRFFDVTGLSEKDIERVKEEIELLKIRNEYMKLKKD

[3] = tested on: T2, RcopLS20-His(6) (Bacillus subtilis plasmid pLS20 (pLS20cat)), ORF:72252162; assay: analytical ultracentrifugation
[4] = molecular target: Rap_(pLS20)-His(6) (Bacillus subtilis plasmid pLS20); assay: AUC
[5] = molecular target: Rap_(pLS20)-His(6) (Bacillus subtilis plasmid pLS20); assay: AUC; remark: listed apart in the source
[6] = molecular target: Rap_(pLS20)-His(6) (Bacillus subtilis plasmid pLS20); assay: AUC; remark: listed apart in the source
[7] = molecular target: Rco_(pLS20)-His(6) (Bacillus subtilis plasmid pLS20); assay: AUC

Molecule: CGCGGATCCTATACCACCTCGCAAAATAAACCCTGTATACGGTCTAGCGCTTACAATTTTTCGCGTTTTTTTTACTCAGTGAAAAAAACCGGTTAAAAATTTCACTGAAATACTTTACAGTTAAAAAAATGTCTGTTATCTTAGTGAAAGAGTCAGTGAAAAAAATGCAGAATAAGGTTTTTTGTTGTTAATCTCAAACAATTTCTGTGTAAAAAGAAC (double strand) [Fragment FIII (219 bp, operator OII)]
- binding [1]: no binding
- binding [2]: binds
- binding [3]: binds

- Kd [4]: 2.1 µM
Molecule: Phr*_(pLS20) (peptide)

- Kd [4]: 4.2 µM
Molecule: PhrF*-I5Y (peptide)

- Kd [4]: 4.2 µM
Molecule: PhrF*-R2K (peptide)

- stoichiometry N [5]: 2
- stoichiometry N [6]: 4
- stoichiometry N [4]: 4
Molecule: Rap_(pLS20)-His(6) (natural protein)

- stoichiometry N [7]: 4
- stoichiometry N ([4]; scale: mol of Rco_(pLS20) per mol of Rap_(pLS20)): 2.1
Molecule: Rco_(pLS20)-His(6) (natural protein)

- Kd [4]: 5.3 µM
B1: PhrF* (peptide)
peptide: QRGMI
